These results are taken from patent publication US20200308292A1.

The target of assay [1] is human insulin receptor extracellular domain (HIR ECD) (human) (UniProt P06213). The assay is described as follows: ELISA, HIR ECD plated; against the HIR Ab as reference. In general terms: An ELISA detects its analyte on a solid surface through an enzyme-linked reagent.
The target is the same in assay [2]. The assay is described as follows: ELISA, HIR ECD plated, biotinylated anti-human IgG detection.

The EC50 is the concentration needed to bring the measured effect to its halfway point. A higher EC50 goes with a less potent agent. As to “GUSB-HIR Ab fusion protein (GUSB fused to the amino terminus of the HIR Ab heavy chain) (from UniProt P08236 23-633) (antibody)”, the reduction in receptor binding affinity in assay [1] was found to be 95%. The substance also registered an EC50 in assay [2] of 4.8 nM. “HIR Ab-GUSB fusion protein (GUSB fused to the carboxyl terminus of the HIR Ab heavy chain) (from UniProt P08236 23-633) (antibody)” had an EC50 in assay [2] of 0.81 nM.
